We go through 2 molecules from patent US5268275, “Vitamin K-dependent carboxylase” (The University of North Carolina at Chapel Hill, dated 1993).

Assay [1] deals with T1, bovine vitamin K-dependent carboxylase (94,000 Mr protein from bovine liver microsomes) (bovine) (UniProt Q07175).
T1 sequence: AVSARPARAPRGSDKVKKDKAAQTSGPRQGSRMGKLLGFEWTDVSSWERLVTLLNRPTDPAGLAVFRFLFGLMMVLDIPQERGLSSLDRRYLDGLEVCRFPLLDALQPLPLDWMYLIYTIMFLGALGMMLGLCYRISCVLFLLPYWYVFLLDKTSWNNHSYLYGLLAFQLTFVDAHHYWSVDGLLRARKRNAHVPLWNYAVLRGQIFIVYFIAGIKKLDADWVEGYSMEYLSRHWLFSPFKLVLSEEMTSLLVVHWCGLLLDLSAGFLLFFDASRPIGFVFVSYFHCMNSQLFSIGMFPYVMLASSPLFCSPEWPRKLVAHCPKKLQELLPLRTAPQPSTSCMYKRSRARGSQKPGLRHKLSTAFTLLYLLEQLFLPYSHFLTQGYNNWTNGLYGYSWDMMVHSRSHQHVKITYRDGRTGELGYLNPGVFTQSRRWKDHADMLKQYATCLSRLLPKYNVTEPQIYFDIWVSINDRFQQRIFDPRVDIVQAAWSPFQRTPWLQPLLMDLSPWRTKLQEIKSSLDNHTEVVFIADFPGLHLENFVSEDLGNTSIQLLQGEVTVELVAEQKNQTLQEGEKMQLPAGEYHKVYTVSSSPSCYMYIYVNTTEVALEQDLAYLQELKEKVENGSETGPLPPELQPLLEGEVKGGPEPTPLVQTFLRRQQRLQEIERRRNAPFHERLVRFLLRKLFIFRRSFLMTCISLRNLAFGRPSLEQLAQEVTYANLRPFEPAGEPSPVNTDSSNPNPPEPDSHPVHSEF

Assay [2] addresses T2, bovine vitamin K-dependent carboxylase (94,000 Mr protein from bovine liver microsomes) (bovine, UniProt Q07175).
T2 sequence: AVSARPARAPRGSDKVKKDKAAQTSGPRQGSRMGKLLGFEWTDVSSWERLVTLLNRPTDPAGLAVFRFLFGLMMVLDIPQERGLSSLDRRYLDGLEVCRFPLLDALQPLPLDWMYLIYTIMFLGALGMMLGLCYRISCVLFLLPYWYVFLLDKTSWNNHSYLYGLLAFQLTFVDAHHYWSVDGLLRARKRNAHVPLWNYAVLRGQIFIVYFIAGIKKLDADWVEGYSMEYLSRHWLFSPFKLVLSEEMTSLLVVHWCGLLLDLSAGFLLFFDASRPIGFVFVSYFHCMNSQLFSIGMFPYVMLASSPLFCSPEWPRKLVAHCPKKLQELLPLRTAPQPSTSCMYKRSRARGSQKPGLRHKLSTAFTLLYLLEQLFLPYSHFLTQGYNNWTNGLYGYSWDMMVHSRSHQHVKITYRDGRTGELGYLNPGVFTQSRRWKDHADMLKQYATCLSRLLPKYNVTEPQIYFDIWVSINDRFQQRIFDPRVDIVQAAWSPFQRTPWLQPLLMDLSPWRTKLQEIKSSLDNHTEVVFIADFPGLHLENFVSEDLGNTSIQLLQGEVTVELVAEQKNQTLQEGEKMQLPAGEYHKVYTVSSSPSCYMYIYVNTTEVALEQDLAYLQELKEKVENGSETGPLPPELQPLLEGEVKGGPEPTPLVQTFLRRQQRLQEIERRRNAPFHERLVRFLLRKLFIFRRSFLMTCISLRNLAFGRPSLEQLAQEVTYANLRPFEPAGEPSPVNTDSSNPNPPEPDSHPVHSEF
Nature of the assay: competition of cross-linking of 125I-FIXQ/S to the carboxylase, 100-fold excess of proFIX19. The source says: In order to evaluate the binding specificity of FIXQ/S and attain an independent estimate of the molecular weight of the carboxylase, we cross-linked ^125I-FIXQ/S to 60-fold affinity-purified material (FIG. 1, lane 3). […] The minor bands in lane 2 were unaffected by competition (lane 1). By subtracting the molecular weight of FIXQ/S (7,000 M_r) from the estimated size of the cross-linked complex we estimate that the size of the protein to which the FIXQ/S peptide binds is approximately 94,000 M_r.

“bovine vitamin K-dependent carboxylase (94,000 Mr protein from bovine liver microsomes) (from UniProt Q07175) (enzyme)” gave a specific activity, 14CO2 incorporation into FLEEL (cpm/mg protein/hr) with peptide FLEEL of 2.4e+09.

Regarding AVFLDHENANKILNRPKRY [Peptide proFIX19], the stimulation of the incorporation of CO2 into FLEEL in assay [1] stood at 13 fold. The binding result in assay [2] is “binds”.
